Test results from patent publication US6569419B2, “Methods for promoting production of myelin by Schwann cells” (ZymoGenetics, Inc., priority 2000, dated 2003).

Key:
[1] = test system: primary rat Schwann cells; experiment: Induction of protein zero expression in Schwann cells (Western blot); type: cell-based; conditions: N2 medium + 1 μM progesterone
Procedure: Primary Schwann cells were prepared as described above using 1-day old CD rat neonates. Schwann cells were grown in DMEM, 10% fetal bovine serum (FBS), plus bovine pituitary extract (PEX) at 20 μg/ml and Forskolin at 2μM. The cells were weaned down to a low serum medium (“Li” medium with 1% FBS added to it). Li medium was comprised of DMEM/F12, 10 μg/ml tranferrin, 5 μg/ml insulin, 2 nM progesterone, 2 μM Forskolin, 20 μg/ml PEX, and 20 ng/ml Heregulin-beta-1 (R & D Systems).
The Schwann cells were grown to confluency in the low serum growth medium on poly-L-lysine-coated 10 cm tissue culture dishes. The cell medium was changed to N2 medium+1 μM progesterone with either Forskolin (Calbiochem) (10 μM and 25 μM) or 100 ng/ml of human Zcyto7. Control medium was Schwann cells in N2+1 μM progesterone for the whole time. Cells were harvested and placed in lysis buffer (125 mM Tris HCl, pH 7.0, 15% sucrose, 4% SDS, 10 mM EDTA, plus added Roche Complete-EDTA-free, protease inhibitor cocktail).
Protein concentrations of cell lysates were determined by Pierce BCA protein assay (Pierce Chemical Co., Rockford, Ill.). Forty micrograms of each cell lysate sample was run on a 4-12% Tris-Glycine gel (Novex) at 125 V for 1 hour 30 minutes, and transferred onto a PVDF membrane in a Hoeffer unit a 550 mAmps for 1 hour. Mouse monoclonal antibody to protein zero was used at 1:1000 dilution (1 μg/am final concentration) to probe the blot. A Vectastain biotin/streptavidin-HRP 2nd antibody system was used for amplication. The blot was developed with Pierce SuperSignal West Pico chemiluminescent substrate and scanned on a Boehringer-Mannheim Lumi-Imager.

[2] = test system: mRNA that encodes myelin basic protein and protein zero; experiment: Hybridization studies: mRNA levels that encode myelin basic protein and protein zero; type: cell-based
Procedure: The expression of myelin basic protein and protein zero was also determined by measuring the mRNA levels that encode myelin basic protein and protein zero.

C=C[C@@]1(C)CC(=O)[C@]2(O)[C@@]3(C)[C@@H](O)CCC(C)(C)[C@@H]3[C@H](O)[C@H](OC(C)=O)[C@@]2(C)O1 [Forskolin]
Relative percentage of P zero protein (media control = 100%) ([1]; 10 μM): 199%
Relative percentage of P zero protein (media control = 100%) ([1]; 25 μM): 30%

B1: human Zcyto7: Human Zcyto7 polypeptide (SEQ ID NO: 2), identified by its homology to Interleukin-17; used at 100 ng/ml (protein)
chain: MDWPHNLLFLLTISIFLGLGQPRSPKSKRKGQGRPGPLAPGPHQVPLDLVSRMKPYARMEEYERNIEEMVAQLRNSSELAQRKCEVNLQLWMSNKRSLSPWGYSINHDPSRIPVDLPEARCLCLGCVNPFTMQEDRSMVSVPVFSQVPVRRRLCPPPPRTGPCRQRAVMETIAVGCTCIF
Relative percentage of P zero protein (media control = 100%) ([1]; 100 ng/ml): 173%

B2: Zcyto7: Zcyto7 polypeptide; species and solution not stated in Example 6 (protein)
chain: MDWPHNLLFLLTISIFLGLGQPRSPKSKRKGQGRPGPLAPGPHQVPLDLVSRMKPYARMEEYERNIEEMVAQLRNSSELAQRKCEVNLQLWMSNKRSLSPWGYSINHDPSRIPVDLPEARCLCLGCVNPFTMQEDRSMVSVPVFSQVPVRRRLCPPPPRTGPCRQRAVMETIAVGCTCIF
mRNA that encodes for myelin basic protein [2]: upregulated
mRNA that encodes for protein zero [2]: upregulated
